In publication PMC4626869, “Subcellular trafficking of guanylyl cyclase/natriuretic peptide receptor-A with concurrent generation of intracellular cGMP” (Bioscience Reports, 2015):
Where no end group is shown, it is not given here.

Target: T1, enhanced GFP-tagged guanylyl cyclase/natriuretic peptide receptor-A (eGFP–NPRA fusion protein) (mouse, UniProt P18293 29-1057)
T1 sequence (looked up): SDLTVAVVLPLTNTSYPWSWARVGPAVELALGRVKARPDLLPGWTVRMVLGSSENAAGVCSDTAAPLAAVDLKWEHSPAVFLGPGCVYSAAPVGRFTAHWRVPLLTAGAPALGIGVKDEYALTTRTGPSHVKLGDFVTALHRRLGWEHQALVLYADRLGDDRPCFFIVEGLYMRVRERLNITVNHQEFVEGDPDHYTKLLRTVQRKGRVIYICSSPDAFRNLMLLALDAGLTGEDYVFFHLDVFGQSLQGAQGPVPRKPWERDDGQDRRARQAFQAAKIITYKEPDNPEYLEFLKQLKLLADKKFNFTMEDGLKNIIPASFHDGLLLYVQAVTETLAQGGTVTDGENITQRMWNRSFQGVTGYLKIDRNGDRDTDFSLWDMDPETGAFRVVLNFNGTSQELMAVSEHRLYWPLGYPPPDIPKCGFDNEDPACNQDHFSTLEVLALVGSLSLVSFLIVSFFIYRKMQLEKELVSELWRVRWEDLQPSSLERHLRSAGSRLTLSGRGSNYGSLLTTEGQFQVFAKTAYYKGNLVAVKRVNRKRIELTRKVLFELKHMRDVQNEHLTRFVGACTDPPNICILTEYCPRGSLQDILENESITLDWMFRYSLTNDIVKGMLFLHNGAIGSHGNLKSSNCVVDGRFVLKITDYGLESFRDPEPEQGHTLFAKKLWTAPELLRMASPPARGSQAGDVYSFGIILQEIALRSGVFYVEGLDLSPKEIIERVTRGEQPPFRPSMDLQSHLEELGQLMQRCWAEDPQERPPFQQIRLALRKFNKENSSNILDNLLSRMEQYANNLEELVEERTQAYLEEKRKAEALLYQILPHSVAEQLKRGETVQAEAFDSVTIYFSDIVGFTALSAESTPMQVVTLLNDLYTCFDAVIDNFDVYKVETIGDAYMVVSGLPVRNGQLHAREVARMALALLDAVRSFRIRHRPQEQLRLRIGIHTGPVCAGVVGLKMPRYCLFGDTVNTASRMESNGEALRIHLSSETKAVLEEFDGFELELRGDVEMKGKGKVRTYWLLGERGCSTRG
Assay: cell-based or functional assay

SLRRSSCFGGRIDRIGAQSGLGCNSFRY (ligand, rat, UniProt P01161 123-150, looked up, ends and bridges not checked; also: 125I label (residue not given here)) [Atrial natriuretic peptide (ANP), 125I-labelled]
cGMP immunofluorescence intensity in intact cells treated with 100 nM ANP (unlabelled) for 1, 5, 10, 15 and 30 min, fold over untreated cells: 27 fold
